These results are taken from paper PMC3438448.

Test [1] deals with microtubules (taxol-stabilized, α/β-tubulin) (UniProt P02554).
The next test concerns the target axonemal microtubules. Briefly: single-molecule microtubule release assay (TIRF); as a6, perfused with 5 mM ATP in the presence of 800 nM Lis1; durations of attachment fitted by a one-phase exponential decay.

Chain of microtubules (taxol-stabilized, α/β-tubulin) (chain, as listed by the source, chain 1 of 2): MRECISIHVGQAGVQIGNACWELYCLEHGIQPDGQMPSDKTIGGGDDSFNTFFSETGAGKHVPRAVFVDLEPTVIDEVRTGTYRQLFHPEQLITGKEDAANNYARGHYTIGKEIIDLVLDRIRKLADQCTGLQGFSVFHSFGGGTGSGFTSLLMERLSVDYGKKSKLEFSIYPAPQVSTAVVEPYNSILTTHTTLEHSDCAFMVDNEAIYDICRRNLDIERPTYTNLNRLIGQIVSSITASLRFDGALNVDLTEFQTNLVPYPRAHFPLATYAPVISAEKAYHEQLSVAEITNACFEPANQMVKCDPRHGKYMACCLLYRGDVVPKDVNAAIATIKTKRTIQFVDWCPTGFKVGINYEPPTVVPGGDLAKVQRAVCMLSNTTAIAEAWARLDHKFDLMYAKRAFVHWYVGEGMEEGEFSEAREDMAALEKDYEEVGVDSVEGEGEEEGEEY
Chain of microtubules (taxol-stabilized, α/β-tubulin) (P02554 whole entry, chain 2 of 2, the tested form may be a part): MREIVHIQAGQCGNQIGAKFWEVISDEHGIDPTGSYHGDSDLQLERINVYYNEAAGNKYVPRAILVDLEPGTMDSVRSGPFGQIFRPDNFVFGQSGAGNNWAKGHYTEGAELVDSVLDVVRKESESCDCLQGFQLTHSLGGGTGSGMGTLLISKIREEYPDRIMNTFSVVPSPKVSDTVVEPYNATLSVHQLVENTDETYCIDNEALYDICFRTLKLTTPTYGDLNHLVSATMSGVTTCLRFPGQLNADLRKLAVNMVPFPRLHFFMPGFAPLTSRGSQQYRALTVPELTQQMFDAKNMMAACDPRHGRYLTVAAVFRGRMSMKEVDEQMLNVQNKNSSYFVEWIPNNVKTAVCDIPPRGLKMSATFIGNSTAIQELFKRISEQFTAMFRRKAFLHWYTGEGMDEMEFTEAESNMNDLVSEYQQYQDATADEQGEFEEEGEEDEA

On to GST-dynein_(331 kDa), P36022 1-4092, for which, in test [1], the Km(MT) of the microtubule-stimulated ATPase activity, with 140 nM Lis1 was 0.2 µM and the Km(MT) of the microtubule-stimulated ATPase activity, without Lis1 turned out to be 0.09 µM.
With “monomeric dynein_(331 kDa) (domain or fragment)”, in the test with axonemal microtubules, the off-rate (decay constant) of microtubule attachments after ATP addition, with 800 nM Lis1 and 5 mM ATP was found to be 0.162 s⁻¹; the off-rate (decay constant) of rebinding events, with Lis1 and ATP is 0.23 s⁻¹.
